Assay results from patent US6448376.

Molecular target: LexA-DP-1 (pLEX(HIS).DP-1: complete bacterial LexA protein fused to DP-1 residues 59 to 410) (bacterial; murine) (UniProt Q08639)
Experiment: cell-based or functional assay

UniProt Q08639, sequence (Q08639 59-410): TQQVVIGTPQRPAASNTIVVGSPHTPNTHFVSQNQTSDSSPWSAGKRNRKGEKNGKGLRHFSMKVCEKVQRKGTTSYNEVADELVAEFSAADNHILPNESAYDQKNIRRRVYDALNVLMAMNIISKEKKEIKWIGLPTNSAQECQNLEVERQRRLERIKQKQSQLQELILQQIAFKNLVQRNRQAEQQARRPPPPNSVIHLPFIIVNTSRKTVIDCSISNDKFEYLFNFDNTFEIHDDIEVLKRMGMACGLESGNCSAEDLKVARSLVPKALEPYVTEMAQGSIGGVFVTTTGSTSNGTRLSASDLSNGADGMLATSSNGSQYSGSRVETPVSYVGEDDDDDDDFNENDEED

- transcriptional activity of the E2F site reporter p4xWT CYC1 in yeast: > 6 fold
Substance: GAD-E2F-5 (pGAD.E2F-5: entire murine E2F-5 as a hybrid with the GAL4 activation domain 768-881) (from UniProt P04386 768-881)
